Measurements taken from FireProtDB (doi:10.1016/j.bpj.2013.08.038).
“And” between values parts separate entries of the source, which are not always exact repeats. Equal values may be shown once.

Conditions: Pseudomonas aeruginosa (strain ATCC 15692 / DSM 22644 / CIP 104116 / JCM 14847 / LMG 12228 / 1C / PRS 101 / PAO1), pH 7, CD, transition: 2, reversible: yes, whole UniProt chain shown; for denaturant m value / unfolding free energy: 25 °C, GdnHCl; for Tm / unfolding enthalpy (calorimetric): Thermal

B1: Azurin wild type, P00282 (protein)
chain: MLRKLAAVSLLSLLSAPLLAAECSVDIQGNDQMQFNTNAITVDKSCKQFTVNLSHPGNLPKNVMGHNWVLSTAADMQGVVTDGMASGLDKDYLKPDDSRVIAHTKLIGSGEKDSVTFDVSKLKEGEQYMFFCTFPGHSALMKGTLTLK
- denaturant m value (Dextran 20 50 mg/ml): 4.99 kcal/mol/M
- denaturant m value (Dextran 20 100 mg/ml): 4.99 kcal/mol/M and 4.87 kcal/mol/M
- unfolding free energy (Dextran 20 100 mg/ml): 8.71 kcal/mol
- denaturant m value (Dextran 20 150 mg/ml): 4.68 kcal/mol/M
- denaturant m value (Dextran 20 200 mg/ml): 4.66 kcal/mol/M
- denaturant m value (Dextran20 200 mg/ml): 4.66 kcal/mol/M
- denaturant m value (Dextran 20 250 mg/ml): 4.49 kcal/mol/M
- unfolding free energy (Dextran 20 250 mg/ml): 9.29 kcal/mol
- denaturant m value (Dextran 20 300 mg/ml): 4.9 kcal/mol/M
- unfolding free energy (Dextran 20 300 mg/ml): 9.65 kcal/mol
- denaturant m value (Dextran 40 200 mg/ml): 5.11 kcal/mol/M
- unfolding free energy (Dextran 40 200 mg/ml): 8.95 kcal/mol
- denaturant m value (Dextran 40 250 mg/ml): 4.08 kcal/mol/M
- unfolding free energy (Dextran 40 250 mg/ml): 9.5 kcal/mol
- denaturant m value (Dextran 40 300 mg/ml): 4.68 kcal/mol/M
- unfolding free energy (Dextran 40 300 mg/ml): 9.65 kcal/mol
- denaturant m value (Dextran 70 100 mg/ml): 4.9 kcal/mol/M
- unfolding free energy (Dextran 70 100 mg/ml): 8.59 kcal/mol
- denaturant m value (Dextran 70 200 mg/ml): 4.73 kcal/mol/M
- unfolding free energy (Dextran 70 200 mg/ml): 8.86 kcal/mol
- denaturant m value (Dextran 70 300 mg/ml): 4.68 kcal/mol/M
- unfolding free energy (Dextran 70 300 mg/ml): 9.65 kcal/mol
- denaturant m value (Ficoll 70 50 mg/ml): 5.09 kcal/mol/M
- denaturant m value (Ficoll 70 100 mg/ml): 4.97 kcal/mol/M
- denaturant m value (Ficoll 70 150 mg/ml): 4.46 kcal/mol/M
- denaturant m value (Ficoll 70 200 mg/ml): 4.92 kcal/mol/M
- denaturant m value (Ficoll 70 250 mg/ml): 4.94 kcal/mol/M
- denaturant m value (Ficoll 70 300 mg/ml): 5.16 kcal/mol/M
- denaturant m value: 4.92 kcal/mol/M
- Tm (Dextran 20 50 mg/ml): 64 °C
- unfolding enthalpy (calorimetric) (Dextran 20 50 mg/ml): 112 kcal/mol
- Tm (Dextran 20 100 mg/ml): 65 °C
- unfolding enthalpy (calorimetric) (Dextran 20 100 mg/ml): 114 kcal/mol
- Tm (Dextran 20 150 mg/ml): 65 °C
- unfolding enthalpy (calorimetric) (Dextran 20 150 mg/ml): 115 kcal/mol
- Tm (Dextran 20 200 mg/ml): 66 °C
- unfolding enthalpy (calorimetric) (Dextran 20 200 mg/ml): 120 kcal/mol
- Tm (Dextran20 200 mg/ml): 66 °C
- Tm (Dextran 20 250 mg/ml): 67 °C
- unfolding enthalpy (calorimetric) (Dextran 20 250 mg/ml): 107 kcal/mol
- Tm (Dextran 40 200 mg/ml): 66 °C
- Tm (Dextran 70 100 mg/ml): 65 °C
- Tm (Dextran 70 200 mg/ml): 68 °C
- Tm (Ficoll 70 50 mg/ml): 64 °C
- unfolding enthalpy (calorimetric) (Ficoll 70 50 mg/ml): 117 kcal/mol
- Tm (Ficoll 70 100 mg/ml): 64 °C
- unfolding enthalpy (calorimetric) (Ficoll 70 100 mg/ml): 117 kcal/mol
- Tm (Ficoll 70 150 mg/ml): 65 °C
- unfolding enthalpy (calorimetric) (Ficoll 70 150 mg/ml): 118 kcal/mol
- Tm (Ficoll 70 200 mg/ml): 65 °C
- unfolding enthalpy (calorimetric) (Ficoll 70 200 mg/ml): 117 kcal/mol
- Tm (Ficoll 70 250 mg/ml): 65 °C
- unfolding enthalpy (calorimetric) (Ficoll 70 250 mg/ml): 113 kcal/mol
